The chains are these.
B1: Cell division protein SepF (Bacillus subtilis), O31728 (parent)
chain: MSMKNKLKNFFSMEDEEYEYEYIETERESHEEHEQKEKPAYNGNKPAGKQNVVSLQSVQKSSKVVLSEPRVYAEAQEIADHLKNRRAVVVNLQRIQHDQAKRIVDFLSGTVYAIGGDIQRIGSDIFLCTPDNVDVSGTISELISEDEHQRW
partner: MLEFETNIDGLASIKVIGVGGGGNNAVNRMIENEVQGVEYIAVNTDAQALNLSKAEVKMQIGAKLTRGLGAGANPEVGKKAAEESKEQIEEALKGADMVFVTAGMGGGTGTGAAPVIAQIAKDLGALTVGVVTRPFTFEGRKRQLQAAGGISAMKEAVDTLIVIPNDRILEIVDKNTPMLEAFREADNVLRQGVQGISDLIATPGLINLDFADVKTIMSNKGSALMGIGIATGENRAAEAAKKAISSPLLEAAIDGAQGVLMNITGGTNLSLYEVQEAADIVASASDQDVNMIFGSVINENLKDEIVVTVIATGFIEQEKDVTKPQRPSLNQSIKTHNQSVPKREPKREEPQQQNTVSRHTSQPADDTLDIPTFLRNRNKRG

One experiment covers variants of B1. To be noted: with ftsz_bacsu ftsZ.
Consider MSMKNKLKNFFSMEDEEYEYEYIETERESHEEHEQKEKPAYNGNKPAGKQNVVSLQSVQKSSKVVLSEPRVYAEAQEIADHLKNRRAVVVNLQRIQHDQAKRIVDFLSGTVYAIGGDIQRIGSDISLCTPDNVDVSGTISELISEDEHQRW [F126S], for which the “effect of a mutation on the interaction” value is given as “disrupting interaction”.

The variants in another experiment derive from B1. The note with it: with ftsz_bacsu ftsZ. This is another data set of the same source.
MSMKNKLKNFFSMEDEEYEYEYIETERESHEEHEQKEKPAYNGNKPAGKQNVVSLQSVQKSSKVVLSEPRVYAEAQEIADHLKNRRAVVVNLQRIQHDQVKRIVDFLSGTVYAIGGDIQRIGSDIFLCTPDNVDVSGTISELISEDEHQRW [A100V]: the “effect of a mutation on the interaction” value is recorded as “disrupting interaction”.

The values are drawn from IntAct's records for PubMed 21224850.
